From IntAct's records for PubMed 21532587

B1: Casein kinase I homolog HRR25 (Saccharomyces cerevisiae), P29295 (parent)
chain: MDLRVGRKFRIGRKIGSGSFGDIYHGTNLISGEEVAIKLESIRSRHPQLDYESRVYRYLSGGVGIPFIRWFGREGEYNAMVIDLLGPSLEDLFNYCHRRFSFKTVIMLALQMFCRIQYIHGRSFIHRDIKPDNFLMGVGRRGSTVHVIDFGLSKKYRDFNTHRHIPYRENKSLTGTARYASVNTHLGIEQSRRDDLESLGYVLIYFCKGSLPWQGLKATTKKQKYDRIMEKKLNVSVETLCSGLPLEFQEYMAYCKNLKFDEKPDYLFLARLFKDLSIKLEYHNDHLFDWTMLRYTKAMVEKQRDLLIEKGDLNANSNAASASNSTDNKSETFNKIKLLAMKKFPTHFHYYKNEDKHNPSPEEIKQQTILNNNAASSLPEELLNALDKGMENLRQQQPQQQVQSSQPQPQPQQLQQQPNGQRPNYYPEPLLQQQQRDSQEQQQQVPMATTRATQYPPQINSNNFNTNQASVPPQMRSNPQQPPQDKPAGQSIWL
partner: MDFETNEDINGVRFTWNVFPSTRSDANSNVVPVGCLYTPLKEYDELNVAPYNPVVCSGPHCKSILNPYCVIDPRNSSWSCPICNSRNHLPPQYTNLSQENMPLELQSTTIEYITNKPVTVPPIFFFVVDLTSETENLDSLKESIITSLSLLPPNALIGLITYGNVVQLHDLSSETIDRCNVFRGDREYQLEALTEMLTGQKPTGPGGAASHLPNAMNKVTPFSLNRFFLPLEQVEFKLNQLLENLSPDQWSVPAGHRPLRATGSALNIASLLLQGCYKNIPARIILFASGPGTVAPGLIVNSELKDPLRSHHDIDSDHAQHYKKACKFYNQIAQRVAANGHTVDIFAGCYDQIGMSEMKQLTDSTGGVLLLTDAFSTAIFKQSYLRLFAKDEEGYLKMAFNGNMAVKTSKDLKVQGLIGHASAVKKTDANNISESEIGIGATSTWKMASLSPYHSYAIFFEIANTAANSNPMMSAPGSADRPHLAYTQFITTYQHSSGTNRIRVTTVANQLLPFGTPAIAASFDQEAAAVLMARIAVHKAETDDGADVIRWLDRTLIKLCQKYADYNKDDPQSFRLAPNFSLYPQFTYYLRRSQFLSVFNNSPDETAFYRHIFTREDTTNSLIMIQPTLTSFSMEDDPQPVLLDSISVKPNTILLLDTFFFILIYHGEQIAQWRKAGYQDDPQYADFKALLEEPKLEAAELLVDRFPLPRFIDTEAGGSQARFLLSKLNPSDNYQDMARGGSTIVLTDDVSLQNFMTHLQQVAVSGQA
B2: Protein transport protein SEC23 (Saccharomyces cerevisiae), P15303 (parent)
chain: B1 partner
B3: Casein kinase I homolog HRR25 (Saccharomyces cerevisiae), P29295 (parent)
chain: B1 chain
partner: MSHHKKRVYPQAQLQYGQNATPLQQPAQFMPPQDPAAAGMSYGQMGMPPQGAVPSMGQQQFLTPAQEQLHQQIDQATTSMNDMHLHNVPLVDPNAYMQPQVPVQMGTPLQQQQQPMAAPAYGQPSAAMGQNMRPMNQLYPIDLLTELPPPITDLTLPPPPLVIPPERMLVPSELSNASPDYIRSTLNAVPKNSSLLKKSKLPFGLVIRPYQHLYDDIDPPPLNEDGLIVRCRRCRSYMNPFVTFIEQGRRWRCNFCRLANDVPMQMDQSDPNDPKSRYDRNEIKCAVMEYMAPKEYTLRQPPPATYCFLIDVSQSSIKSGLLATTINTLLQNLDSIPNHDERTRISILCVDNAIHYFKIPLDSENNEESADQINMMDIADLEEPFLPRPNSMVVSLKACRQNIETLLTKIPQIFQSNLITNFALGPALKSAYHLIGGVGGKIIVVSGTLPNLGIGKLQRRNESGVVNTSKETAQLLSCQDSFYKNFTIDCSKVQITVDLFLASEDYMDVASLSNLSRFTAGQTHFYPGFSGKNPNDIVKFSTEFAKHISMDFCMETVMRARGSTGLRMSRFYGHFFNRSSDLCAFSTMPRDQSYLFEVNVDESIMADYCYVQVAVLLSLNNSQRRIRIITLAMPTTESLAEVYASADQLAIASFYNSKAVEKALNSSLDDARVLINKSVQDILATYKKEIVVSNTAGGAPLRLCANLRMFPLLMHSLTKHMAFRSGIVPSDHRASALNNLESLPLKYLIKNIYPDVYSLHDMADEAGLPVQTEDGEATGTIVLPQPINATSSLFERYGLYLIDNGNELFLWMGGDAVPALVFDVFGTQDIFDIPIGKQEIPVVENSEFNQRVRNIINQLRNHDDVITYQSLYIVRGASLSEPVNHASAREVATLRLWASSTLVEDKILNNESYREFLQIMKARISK
B4: Protein transport protein SEC23 (Saccharomyces cerevisiae), P15303 (parent)
chain: B1 partner
partner: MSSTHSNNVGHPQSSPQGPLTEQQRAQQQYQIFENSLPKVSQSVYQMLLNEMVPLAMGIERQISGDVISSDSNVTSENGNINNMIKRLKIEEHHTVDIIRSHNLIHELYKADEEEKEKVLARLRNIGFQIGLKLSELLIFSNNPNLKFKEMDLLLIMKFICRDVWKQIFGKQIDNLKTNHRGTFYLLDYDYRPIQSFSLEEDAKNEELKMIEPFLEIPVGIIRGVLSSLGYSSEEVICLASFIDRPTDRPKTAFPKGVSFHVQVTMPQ

Variants of: B1
Conditions: with sec23_yeast SEC23, P15303

Variant	effect of a mutation on the interaction
K38A	disrupting interaction

Variants of: B2
Conditions: with sar1_yeast SAR1, P20606
Chain of sar1_yeast SAR1, P20606 (P20606 whole entry): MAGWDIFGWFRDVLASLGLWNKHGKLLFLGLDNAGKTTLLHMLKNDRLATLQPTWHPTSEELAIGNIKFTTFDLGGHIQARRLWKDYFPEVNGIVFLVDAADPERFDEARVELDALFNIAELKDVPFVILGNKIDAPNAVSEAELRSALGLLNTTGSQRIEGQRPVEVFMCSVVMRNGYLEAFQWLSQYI

Variant	effect of a mutation on the interaction
T747E	disrupting interaction
S742D	disrupting interaction
S742D;T747E	disrupting interaction

Variants of: B3
Conditions: with sec24_yeast SEC24, P40482

Variant	effect of a mutation on the interaction
K38A	disrupting interaction

Variants of: B4
Conditions: with trs33_yeast TRS33, Q99394

Variant	effect of a mutation on the interaction
S742D;T747E	decreasing interaction
